Measured values published in the supplement of paper PMC7877785.
± gives the uncertainty stated by the source.

Test: self-splicing fitness, log relative to wild type (ln ratio); higher = more splicing; Tetrahymena group I intron in knt gene, E. coli kanamycin selection, DiMSum; sequences stand for … in CUCUCU…GGAGGGAAAAGUUAUCAGGCAUGCACCUGGUAGCUAGUCUUUAAACCAAUAGAUUGCAUCGGUUUAAAAGGCAAGACCGUCAAAUUGCGGGAAAGGGGUCAACAGCCGUUCAGUACCAAGUCUCAGGGGAAACUUUGAGAUGGCCUUGCAAAGGGUAUGGUAAUAAGCUGACGGACAUGGUCCUAACCACGCAGCCAAGUCCUAAGUCAACAGAUCUUCUGUUGAUAUGGAUGCAGUUCACAGACUAAAUGUCGGUCGGGGAAGAUGUAUUCUUCUCAUAAGAUAUAGUCGGACCUCUCCUUAAUGGGAGCUAGCGGAUGAAGUGAUGCAACACUGGAGCCGCUGGGAACUAAUUUGUAUGCGAAAGUAUAUUGAUUAGUUUUGGAGUACUCGUGGUCG
Summary of the method: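 Colonies from six replicate transformations of E. coli BL21(DE3) were pooled and amplicon-sequenced on an Illumina HiSeq 2500. The library placed an intron with all eight P1ex-region nucleotides randomised inside the knt kanamycin-resistance gene on pET-22b(+), and cells grew overnight at 37°C or 30°C on LB agar with or without 25 μg/mL kanamycin (plus 100 μg/mL carbenicillin, 50 μM IPTG, 0.2% rhamnose). Fitness is the DiMSum error-weighted combination of wild-type-normalised replicate fold changes, kanamycin versus none.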

Sequence	self-splicing fitness (ln) (30 °C)	self-splicing fitness (ln) (37 °C)
UUAUAGCAAUAUUACGGAUC	-3.02 ± 0.45	
UUAUAGCAAUAUUACGGCAU	-2.47 ± 0.18	-2.3 ± 0.25
UUAUAGCAAUAUUACGGCGA	-1.38 ± 0.14	-0.219 ± 0.18
UUAUAGCAAUAUUACGGGCA	-2.37 ± 0.18	-1.32 ± 0.19
UUAUAGCAAUAUUACGGUAC	-2.88 ± 0.28	-2.45 ± 0.41
UUAUAGCAAUAUUACGGUAG	-1.38 ± 0.14	-0.483 ± 0.14
UUAUAGCAAUAUUACGGUCC	-2.8 ± 0.21	-2.93 ± 0.29
UUAUAGCAAUAUUACGUCAA	-1.61 ± 0.26	-0.961 ± 0.22
UUAUAGCAAUAUUACGUGUA	-2.46 ± 0.18	-1.73 ± 0.16
UUAUAGCAAUAUUACGUGUG	-1.63 ± 0.083	-0.419 ± 0.098
UUCAAGCAAUAUUACGAACG	-4.29 ± 0.36	-2.46 ± 0.25
UUCAAGCAAUAUUACGAAGG	-4.7 ± 0.41	-2.95 ± 0.26
UUCAAGCAAUAUUACGAAGU	-3.76 ± 0.37	-0.849 ± 0.23
UUCAAGCAAUAUUACGACGU	-0.831 ± 0.094	0.325 ± 0.13
UUCAAGCAAUAUUACGACUU	-3.86 ± 0.15	-2.65 ± 0.18
UUCAAGCAAUAUUACGAUGC	-3.39 ± 0.45	-1.85 ± 0.28
UUCAAGCAAUAUUACGCAGA	-3.11 ± 0.35	-1.91 ± 0.2
UUCAAGCAAUAUUACGCAUC	-3.87 ± 0.29	-1.81 ± 0.17
UUCAAGCAAUAUUACGCCUG		-1.64 ± 0.34
UUCAAGCAAUAUUACGCGAU	-2.11 ± 0.16	-3 ± 0.34
UUCAAGCAAUAUUACGCUAG	-2.23 ± 0.23	-2.32 ± 0.26
UUCAAGCAAUAUUACGGACA	-0.496 ± 0.12	0.121 ± 0.11
UUCAAGCAAUAUUACGGAUU	-3.19 ± 0.17	-1.96 ± 0.14
UUCAAGCAAUAUUACGGCUA	-0.138 ± 0.094	-0.12 ± 0.087
UUCAAGCAAUAUUACGGGAG	-1.78 ± 0.098	-0.95 ± 0.097

Sequence	self-splicing fitness (ln) (30 °C)	self-splicing fitness (ln) (37 °C)
UUCAAGCAAUAUUACGGGCG	-0.977 ± 0.077	-0.629 ± 0.1
UUCAAGCAAUAUUACGGGGU	-3.57 ± 0.21	-3.15 ± 0.25
UUCAAGCAAUAUUACGGUGG	-1.54 ± 0.12	-0.439 ± 0.13
UUCAAGCAAUAUUACGGUUG	-2.96 ± 0.14	-2.41 ± 0.18
UUCAAGCAAUAUUACGUAAA	-0.739 ± 0.086	-0.541 ± 0.14
UUCAAGCAAUAUUACGUCCU	-1.99 ± 0.12	-1.04 ± 0.14
UUCAAGCAAUAUUACGUCGC	-4.02 ± 0.3	-2.17 ± 0.3
UUCAAGCAAUAUUACGUGGG	-3.07 ± 0.11	-1.97 ± 0.13
UUCCAGCAAUAUUACGAAAA	-0.987 ± 0.11	0.126 ± 0.11
UUCCAGCAAUAUUACGACCU	-2.38 ± 0.26	-3.19 ± 0.39
UUCCAGCAAUAUUACGACGU	-2.06 ± 0.18	-2.18 ± 0.2
UUCCAGCAAUAUUACGAUGG	-2.91 ± 0.24	
UUCCAGCAAUAUUACGAUGU	-3.24 ± 0.12	-2.22 ± 0.16
UUCCAGCAAUAUUACGCAAG	-1.62 ± 0.07	-0.644 ± 0.09
UUCCAGCAAUAUUACGCCAA	-0.739 ± 0.12	-0.362 ± 0.17
UUCCAGCAAUAUUACGCUAU	-2.04 ± 0.085	-0.605 ± 0.083
UUCCAGCAAUAUUACGCUCC	-2.51 ± 0.24	-0.988 ± 0.22
UUCCAGCAAUAUUACGCUGG	-3.73 ± 0.27	-2.51 ± 0.31
UUCCAGCAAUAUUACGGAAC		-3.19 ± 0.4
UUCCAGCAAUAUUACGGACA	-0.469 ± 0.068	-0.0722 ± 0.077
UUCCAGCAAUAUUACGGAUU	-1.9 ± 0.11	-1.01 ± 0.12
UUCCAGCAAUAUUACGGCAC	-2.78 ± 0.21	-0.351 ± 0.2
UUCCAGCAAUAUUACGGCUU	-1.4 ± 0.11	-0.36 ± 0.1
UUCCAGCAAUAUUACGGGCA	-0.578 ± 0.067	0.454 ± 0.089
UUCCAGCAAUAUUACGUACC	-2.05 ± 0.24	-1.71 ± 0.31

Sequence	self-splicing fitness (ln) (30 °C)	self-splicing fitness (ln) (37 °C)
UUCCAGCAAUAUUACGUAGG	-4.29 ± 0.42	-2.44 ± 0.23
UUCCAGCAAUAUUACGUCAC	-2.79 ± 0.18	-3.15 ± 0.29
UUCCAGCAAUAUUACGUGCC		-2.5 ± 0.39
UUCCAGCAAUAUUACGUGGU	-3.26 ± 0.17	-2.08 ± 0.14
UUCCAGCAAUAUUACGUUAU	-3.08 ± 0.12	-1.95 ± 0.15
UUCCAGCAAUAUUACGUUCA	-0.829 ± 0.13	0.389 ± 0.12
UUCCAGCAAUAUUACGUUGG	-3.19 ± 0.21	-2.53 ± 0.21
UUCGAGCAAUAUUACGAACU	-3.28 ± 0.32	-0.827 ± 0.44
UUCGAGCAAUAUUACGAGUC	-2.82 ± 0.29	-2.03 ± 0.45
UUCGAGCAAUAUUACGAUUC	-3.5 ± 0.44	
UUCGAGCAAUAUUACGCAGG	-2.48 ± 0.27	-1.82 ± 0.23
UUCGAGCAAUAUUACGCCUG	-3.17 ± 0.29	-2.64 ± 0.2
UUCGAGCAAUAUUACGCGAG	-2.72 ± 0.37	-1.94 ± 0.44
UUCGAGCAAUAUUACGCGGA	-2.94 ± 0.25	-3.71 ± 0.39
UUCGAGCAAUAUUACGGCUA	-1.51 ± 0.38	-0.029 ± 0.37
UUCGAGCAAUAUUACGGGCG	-2.45 ± 0.2	-1.01 ± 0.18
UUCGAGCAAUAUUACGUAAG	-3.03 ± 0.36	-3.24 ± 0.42
UUCGAGCAAUAUUACGUGGA	-2.74 ± 0.22	-2.58 ± 0.2
UUCGAGCAAUAUUACGUGGG	-2.45 ± 0.12	-2.75 ± 0.19
UUCGAGCAAUAUUACGUUGC	-2.18 ± 0.23	-1.27 ± 0.28
UUCGAGCAAUAUUACGUUGG	-4.14 ± 0.39	-2.03 ± 0.43
UUCGAGCAAUAUUACGUUUA	-2 ± 0.16	-1.54 ± 0.16
UUCUAGCAAUAUUACGAAGC		-1.2 ± 0.45
UUCUAGCAAUAUUACGAAUA	-2.64 ± 0.3	-0.478 ± 0.17
UUCUAGCAAUAUUACGAGGC		-2.11 ± 0.38

Sequence	self-splicing fitness (ln) (30 °C)	self-splicing fitness (ln) (37 °C)
UUCUAGCAAUAUUACGAGUG	0.0611 ± 0.065	0.118 ± 0.094
UUCUAGCAAUAUUACGAUUU	-1.54 ± 0.16	-1.33 ± 0.15
UUCUAGCAAUAUUACGGAGU	-2.24 ± 0.2	-2.56 ± 0.26
UUCUAGCAAUAUUACGGCCA	-2.24 ± 0.4	-1.84 ± 0.42
UUCUAGCAAUAUUACGGGUA	-0.701 ± 0.18	-0.842 ± 0.2
UUCUAGCAAUAUUACGGUUA	-1.7 ± 0.11	-0.789 ± 0.093
UUCUAGCAAUAUUACGUGUA	-1.26 ± 0.08	-0.8 ± 0.094
UUGAAGCAAUAUUACGAAUG	-0.746 ± 0.081	-0.263 ± 0.11
UUGAAGCAAUAUUACGAGGG	-1.6 ± 0.17	-1.37 ± 0.24
UUGAAGCAAUAUUACGAGGU	-4.15 ± 0.37	-1.78 ± 0.22
UUGAAGCAAUAUUACGAGUC	-3.73 ± 0.32	-2.8 ± 0.38
UUGAAGCAAUAUUACGAGUG	-0.347 ± 0.055	-0.22 ± 0.077
UUGAAGCAAUAUUACGAUUG	-1.35 ± 0.088	0.272 ± 0.11
UUGAAGCAAUAUUACGCAAG	-0.402 ± 0.099	0.251 ± 0.12
UUGAAGCAAUAUUACGCACA	-0.575 ± 0.11	0.157 ± 0.13
UUGAAGCAAUAUUACGCAGU	-1.2 ± 0.3	-1.54 ± 0.32
UUGAAGCAAUAUUACGCAUC	-3.54 ± 0.33	
UUGAAGCAAUAUUACGCAUG	-0.179 ± 0.12	-0.519 ± 0.11
UUGAAGCAAUAUUACGCCCA	0.429 ± 0.12	0.296 ± 0.16
UUGAAGCAAUAUUACGGACG	-0.0419 ± 0.12	0.902 ± 0.15
UUGAAGCAAUAUUACGGGGU	-2.29 ± 0.2	-2.27 ± 0.26
UUGAAGCAAUAUUACGUACA	0.247 ± 0.1	0.767 ± 0.14
UUGAAGCAAUAUUACGUACU	-0.493 ± 0.088	-0.0917 ± 0.11
